# Laboratory results reported in patent US20200347151A1 (CRAGE MEDICAL, published 2020).
# B1: antibody 8E3 (scFv), affinity-matured from 10A4 (scFv)
# scFv: QVQLVQSGAEVKKPGSSVKVSCKASGGTFSSYAISWVRQAPGQGLEWMGGIIPIFGTANYAQKFQGRVTITADKSTSTAYMELSSLRSEDTAVYYCARDAADRDYWGQGTTVTVSSGGGGSGGGGSGGGGSDIVMTQSPLSLPVTPGEPASISCRSSQSLLHPNGFNHLYWYLQKPGQSPQLLIYVGGNRASGVPDRFSGSGSGTDFTLKISRVEAEDVGVYYCQQRNNKNRTFGQGTKVEIKR
# notes: also called hu8E3
# Assays:
# human FAPα_His [1] = molecular target: T1, human FAPα_His (human, UniProt Q12884 26-760); assay: Biacore, scFv; 8E3, human FAPα
# T1 construct: Fusion protein expressed in 293F cells and purified on a nickel column; also called huFAP; recombinant huFAPα
# T1 sequence (Q12884 other isoform, or with tags, fused parts or gaps limits assumed): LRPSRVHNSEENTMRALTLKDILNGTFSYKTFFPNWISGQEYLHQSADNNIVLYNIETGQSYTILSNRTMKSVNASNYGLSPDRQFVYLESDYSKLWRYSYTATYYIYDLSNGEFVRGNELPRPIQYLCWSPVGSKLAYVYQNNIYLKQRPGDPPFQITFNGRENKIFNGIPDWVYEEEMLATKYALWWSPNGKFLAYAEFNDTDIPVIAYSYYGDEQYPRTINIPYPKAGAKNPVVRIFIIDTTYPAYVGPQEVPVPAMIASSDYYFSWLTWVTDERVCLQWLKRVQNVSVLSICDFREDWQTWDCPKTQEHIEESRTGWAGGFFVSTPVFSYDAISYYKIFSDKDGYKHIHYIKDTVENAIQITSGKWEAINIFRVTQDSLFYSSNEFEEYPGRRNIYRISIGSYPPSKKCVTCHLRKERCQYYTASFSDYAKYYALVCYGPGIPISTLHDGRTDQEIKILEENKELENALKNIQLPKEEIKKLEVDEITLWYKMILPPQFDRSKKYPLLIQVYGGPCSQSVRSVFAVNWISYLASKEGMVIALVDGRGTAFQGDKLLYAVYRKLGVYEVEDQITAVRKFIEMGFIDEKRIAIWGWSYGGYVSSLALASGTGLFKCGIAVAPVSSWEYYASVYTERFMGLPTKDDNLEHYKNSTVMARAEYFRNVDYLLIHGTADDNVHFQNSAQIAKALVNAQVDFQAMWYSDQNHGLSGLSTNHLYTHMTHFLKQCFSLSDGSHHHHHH
# mouse FAPα_His = molecular target: T2, mouse FAPα_His (mouse, UniProt P97321 26-761); assay: Biacore, scFv; 8E3, murine FAP
# T2 construct: Fusion protein expressed in 293F cells and purified on a nickel column; also called mFAP
# T2 sequence (P97321 other isoform, or with tags, fused parts or gaps limits assumed): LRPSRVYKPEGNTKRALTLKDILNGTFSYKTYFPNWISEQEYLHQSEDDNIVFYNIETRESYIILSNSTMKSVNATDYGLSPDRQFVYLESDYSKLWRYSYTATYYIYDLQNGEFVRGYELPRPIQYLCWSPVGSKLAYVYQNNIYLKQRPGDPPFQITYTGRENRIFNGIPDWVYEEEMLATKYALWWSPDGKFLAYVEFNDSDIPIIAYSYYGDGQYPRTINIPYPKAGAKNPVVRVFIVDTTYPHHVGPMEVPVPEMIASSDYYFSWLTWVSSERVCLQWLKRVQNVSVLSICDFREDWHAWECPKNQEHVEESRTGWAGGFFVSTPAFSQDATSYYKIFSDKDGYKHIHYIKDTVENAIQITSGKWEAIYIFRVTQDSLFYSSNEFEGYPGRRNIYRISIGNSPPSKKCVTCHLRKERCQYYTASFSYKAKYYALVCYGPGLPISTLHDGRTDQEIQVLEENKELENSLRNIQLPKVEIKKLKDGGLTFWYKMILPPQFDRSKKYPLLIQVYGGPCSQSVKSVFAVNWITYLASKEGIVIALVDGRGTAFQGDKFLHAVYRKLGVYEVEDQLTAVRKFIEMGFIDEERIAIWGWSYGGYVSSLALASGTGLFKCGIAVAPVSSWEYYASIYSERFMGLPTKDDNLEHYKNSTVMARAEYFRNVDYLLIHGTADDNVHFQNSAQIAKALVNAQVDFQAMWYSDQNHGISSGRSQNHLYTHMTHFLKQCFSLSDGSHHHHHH
# human FAPα_His [2] = molecular target: T1, human FAPα_His; assay: Biacore, scFv; reference is parent antibody 10A4
binder,measurement,setting,value
B1,Kd,human FAPα_His [1],81.6 nM
same,Kd,mouse FAPα_His,267 nM
same,fold affinity against 10A4,human FAPα_His [2],2.4 times
